This passage reports binding result and Kd results from patent US20190218277A1 (Chugai, published 2019).

In general, Kd refers to the constant that tells how readily two partners part at equilibrium.

B1: DG_3CH1000-SG1106/3CL012-SK1 (antibody)
heavy: QVQLVQSGPDVEKPGASVKVSCKASGYTFTSYYMHWVRQAPGQGLEWMGVINPRGGSRRSAQKFQGRITMTRDTSTSTVYMELSSLRSEDTAVYYCARGGRALFYDSYTTPFDGGSWWFDPWGQGSLVTVSSASTKGPSVFPLAPSSKSTSGGTAALGCLVKDYFPEPVTVSWNSGALTSGVHTFPAVLQSSGLYSLSSVVTVPSSSLGTQTYICNVNHKPSNTKVDKRVEPKSCDKTHTCPPCPAPEAAGGPSVFLFPPKPKDTLMISRTPEVTCVVVDVSHEDPEVKFNWYVDGVEVHNAKTKPREEQYNSTYRVVSVLTVLHQDWLNGKEYKCKVSNAALPAPISKTISKAKGQPREPQVYTLPPSREEMTKNQVSLTCLVKGFYPSDIAVEWESNGQPENNYKTTPPVLDSDGSFFLYSKLTVDKSRWQQGNVFSCSVLHEALHAHYTRKELSLSP
light: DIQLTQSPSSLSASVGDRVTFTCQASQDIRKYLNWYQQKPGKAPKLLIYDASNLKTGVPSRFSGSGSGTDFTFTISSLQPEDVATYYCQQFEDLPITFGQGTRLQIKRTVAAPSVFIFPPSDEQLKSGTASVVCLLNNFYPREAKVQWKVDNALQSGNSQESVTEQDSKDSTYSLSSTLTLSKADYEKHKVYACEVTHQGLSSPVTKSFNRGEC
B2: DG_3CH1047-SG1106/3CL012-SK1 (antibody)
heavy: B1 heavy with R101E
light: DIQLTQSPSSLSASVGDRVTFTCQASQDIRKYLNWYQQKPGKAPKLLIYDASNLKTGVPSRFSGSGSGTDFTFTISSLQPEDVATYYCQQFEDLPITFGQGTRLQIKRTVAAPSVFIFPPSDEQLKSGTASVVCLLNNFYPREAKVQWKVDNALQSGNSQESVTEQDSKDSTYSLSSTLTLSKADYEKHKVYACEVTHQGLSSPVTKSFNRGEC
B3: DG_3CH1047-SG1106/3CL119-SK1 (antibody)
heavy: B1 heavy with R101E
light: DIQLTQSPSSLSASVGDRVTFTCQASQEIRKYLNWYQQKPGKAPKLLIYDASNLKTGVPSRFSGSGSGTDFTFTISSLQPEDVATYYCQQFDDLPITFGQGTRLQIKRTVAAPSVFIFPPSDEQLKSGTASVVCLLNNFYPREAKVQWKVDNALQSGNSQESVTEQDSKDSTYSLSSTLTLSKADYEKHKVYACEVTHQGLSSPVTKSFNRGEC
B4: DG_3CH1000-SG1106/3CL119-SK1 (antibody)
heavy: B1 heavy
light: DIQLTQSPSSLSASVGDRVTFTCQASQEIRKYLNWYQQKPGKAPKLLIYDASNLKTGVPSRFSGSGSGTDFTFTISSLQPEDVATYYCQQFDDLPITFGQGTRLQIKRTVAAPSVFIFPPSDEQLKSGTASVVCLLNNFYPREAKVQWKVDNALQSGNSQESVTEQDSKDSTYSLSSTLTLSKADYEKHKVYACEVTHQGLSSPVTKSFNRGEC
B5: DG_3CH953-SG1106/3CL119-SK1 (antibody)
heavy: B1 heavy with Y32N, M34I
light: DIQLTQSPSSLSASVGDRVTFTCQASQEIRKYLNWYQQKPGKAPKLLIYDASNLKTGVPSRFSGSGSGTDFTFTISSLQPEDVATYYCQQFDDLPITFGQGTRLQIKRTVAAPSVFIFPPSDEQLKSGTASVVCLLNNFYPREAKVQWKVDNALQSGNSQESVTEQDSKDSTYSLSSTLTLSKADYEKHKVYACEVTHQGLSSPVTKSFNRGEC
B6: DG_3CH1000-SG182/3CL666-SK1 (antibody, V domains shown)
VH: QVQLVQSGPDVEKPGASVKVSCKASGYTFTSYYMHWVRQAPGQGLEWMGVINPRGGSRRSAQKFQGRITMTRDTSTSTVYMELSSLRSEDTAVYYCARGGRALFYDSYTTPFDGGSWWFDPWGQGSLVTVSS
VL: DIQLTQSPSSLSASVGDRVTITCQASQEIRKYLNWYQQKPGKAPKLLIYDASNLKTGVPSRFSGSGSGTDFTLTISSLQPEDVATYYCQQFDDLPITFGQGTRLQIKR
B7: DG_3CH1000-SG1095/3CL-SK1 (antibody, human IgG1, kappa, L234A L235A)
heavy: B1 heavy with L443M, A449N, R453Q, E455S
light: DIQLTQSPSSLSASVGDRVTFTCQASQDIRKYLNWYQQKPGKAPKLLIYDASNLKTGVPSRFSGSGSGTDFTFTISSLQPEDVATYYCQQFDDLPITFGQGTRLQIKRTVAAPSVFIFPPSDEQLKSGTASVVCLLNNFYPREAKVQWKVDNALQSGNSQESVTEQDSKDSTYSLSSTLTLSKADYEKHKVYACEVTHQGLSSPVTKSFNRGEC
B8: DG_3CH1046-SG182/3CL012-SK1 (antibody, V domains shown)
VH: B6 VH with P9A, D10E, E12K, I68V
VL: B6 VL with I21F, E28D, L73F, D92E
B9: DG_3CH1000-SG1095/3CL012-SK1 (antibody, human IgG1, kappa, L234A L235A)
heavy: B1 heavy with L443M, A449N, R453Q, E455S
light: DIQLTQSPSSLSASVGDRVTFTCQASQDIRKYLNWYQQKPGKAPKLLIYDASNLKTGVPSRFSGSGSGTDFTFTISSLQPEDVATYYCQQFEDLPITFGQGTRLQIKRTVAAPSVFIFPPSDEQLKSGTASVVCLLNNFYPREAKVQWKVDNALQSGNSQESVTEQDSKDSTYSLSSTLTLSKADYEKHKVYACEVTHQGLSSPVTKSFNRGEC
B10: DG_3CH1049-SG182/3CL012-SK1 (antibody, V domains shown)
VH: B6 VH with P9A, D10E, E12K, I68V, R101E
VL: B6 VL with I21F, E28D, L73F, D92E
B11: DG_3CH1046-SG182/3CL119-SK1 (antibody, V domains shown)
VH: B6 VH with P9A, D10E, E12K, I68V
VL: B6 VL with I21F, L73F
B12: DG_3CH1000-SG1095/3CL119-SK1 (antibody)
heavy: B1 heavy with L443M, A449N, R453Q, E455S
light: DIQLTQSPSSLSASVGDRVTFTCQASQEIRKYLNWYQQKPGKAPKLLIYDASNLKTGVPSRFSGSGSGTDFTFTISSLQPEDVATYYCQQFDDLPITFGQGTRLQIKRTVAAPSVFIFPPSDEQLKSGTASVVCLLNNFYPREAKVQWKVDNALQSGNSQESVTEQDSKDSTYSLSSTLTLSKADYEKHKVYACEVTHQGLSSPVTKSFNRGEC
B13: DG_3CH1047-SG182/3CL633-SK1 (antibody, V domains shown)
VH: B6 VH with R101E
VL: B6 VL with E28D
B14: DG_3CH1047-SG182/3CL666-SK1 (antibody, V domains shown)
VH: B6 VH with R101E
VL: B6 VL
B15: DG_3CH1049-SG182/3CL-SK1 (antibody, V domains shown)
VH: B6 VH with P9A, D10E, E12K, I68V, R101E
VL: B6 VL with I21F, E28D, L73F
B16: DG_3CH1046-SG182/3CL-SK1 (antibody, V domains shown)
VH: B6 VH with P9A, D10E, E12K, I68V
VL: B6 VL with I21F, E28D, L73F
B17: DG_3CH1046-SG182/3CL633-SK1 (antibody, V domains shown)
VH: B6 VH with P9A, D10E, E12K, I68V
VL: B6 VL with E28D
B18: DG_3CH1049-SG182/3CL119-SK1 (antibody, V domains shown)
VH: B6 VH with P9A, D10E, E12K, I68V, R101E
VL: B6 VL with I21F, L73F
B19: DG_3CH1047-SG1095/3CL119-SK1 (antibody)
heavy: B1 heavy with R101E, L443M, A449N, R453Q, E455S
light: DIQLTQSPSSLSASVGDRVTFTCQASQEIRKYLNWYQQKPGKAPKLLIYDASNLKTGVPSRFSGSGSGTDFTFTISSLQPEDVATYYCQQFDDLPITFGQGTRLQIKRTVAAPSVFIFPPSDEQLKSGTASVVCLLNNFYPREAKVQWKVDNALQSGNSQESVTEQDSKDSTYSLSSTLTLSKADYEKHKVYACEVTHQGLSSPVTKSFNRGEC
B20: DG_3CH1047-SG1095/3CL012-SK1 (antibody, human IgG1, kappa, L234A L235A)
heavy: B1 heavy with R101E, L443M, A449N, R453Q, E455S
light: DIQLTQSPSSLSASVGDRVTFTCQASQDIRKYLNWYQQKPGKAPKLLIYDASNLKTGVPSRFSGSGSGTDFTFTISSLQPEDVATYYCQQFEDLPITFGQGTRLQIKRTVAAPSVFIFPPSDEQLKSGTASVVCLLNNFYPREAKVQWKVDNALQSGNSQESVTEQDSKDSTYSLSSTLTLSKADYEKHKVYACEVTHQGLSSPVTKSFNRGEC
B21: DG_3CH1000-SG182/3CL668-SK1 (antibody, V domains shown)
VH: B6 VH
VL: B6 VL with E28D, D92E

Positions count from the first letter of the chain named.

The target in one experiment is T1, Recombinant soluble E protein (0.8E-His) from DENV-2 (DENV-2, UniProt P14340 281-675).
T1 construct: also called DENV-2 E protein; DV2
The experiment in a line: SPR, Biacore T200. On the technique in general: In SPR one partner is held on a chip, and binding of the other changes the refractive index at the surface.
Consider B1, for which the binding result is “binds”.

As to B2, the binding result is reported as “binds”.

Regarding B3, the binding result is on record as “binds”.

In the case of B4, the binding result was “binds”.

For the molecule B5, the binding result is listed as “binds”.

Regarding B6, the binding result is “binds”.

With B7, the binding result is reported as “binds”.

For the molecule B8, the binding result is “binds”.

As to B9, the binding result was “binds”.

For the molecule B10, the binding result is “binds”.

With B11, the binding result is given as “binds”.

As for B12, the binding result is on record as “binds”.

As for B13, the binding result is given as “binds”.

Regarding B14, the binding result is on record as “binds”.

As for B15, the binding result was “binds”.

For the molecule B16, the binding result is on record as “binds”.

As to B17, the binding result was “binds”.

As for B18, the binding result is “binds”.

Turning to B19, the binding result is “binds”.

In the case of B20, the binding result is “binds”.

With B21, the binding result was “binds”.

The target in another experiment is T2, Recombinant soluble E protein (0.8E-His) from DENV-4 (DENV-4, UniProt P09866 280-674).
T2 construct: also called DENV-4 E protein; DV4
The experiment in a line: SPR, Biacore T200.
Regarding B1, the binding result is recorded as “binds”.

With B2, the binding result was “binds”.

B3: the binding result is given as “binds”.

On to B4, for which the binding result is recorded as “binds”.

Consider B5, for which the binding result was “binds”.

Regarding B6, the binding result is on record as “binds”.

With B7, the binding result was “binds”.

In the case of B8, the binding result is given as “binds”.

For B9, the binding result was “binds”.

Turning to B10, the binding result is recorded as “binds”.

Consider B11, for which the binding result is given as “binds”.

Regarding B12, the binding result was “binds”.

Consider B13, for which the binding result was “binds”.

Consider B14, for which the binding result is listed as “binds”.

Turning to B15, the binding result was “binds”.

For the molecule B16, the binding result was “binds”.

Take B17: the binding result is listed as “binds”.

On to B18, for which the binding result is “binds”.

As to B19, the binding result is on record as “binds”.

Regarding B20, the binding result is reported as “binds”.

For B21, the binding result is “binds”.

The target of the next experiment is T3, Recombinant soluble E protein (0.8E-His) from DENV-3 (DENV-3, UniProt P27915 281-673).
T3 construct: also called DENV-3 E protein; DV3
Assay: not given
For B1, the Kd amounted to 0.101 pM.

Take B2: the Kd was found to be 2.36 pM.

For the molecule B3, the Kd is 4.36 pM.

As for B4, the Kd turned out to be 1.82 pM.

As to B5, the dissociation constant Kd was found to be 2.17 pM.

For B6, the Kd came to 2.5 pM.

For the molecule B7, the equilibrium dissociation constant (Kd) came to 16.8 pM.

Regarding B8, the Kd was 0.145 pM.

On to B9, for which the Kd came out at 0.959 pM.

Take B10: the Kd was determined as 1.05 pM.

As to B11, the dissociation constant (Kd) worked out at 2.73 pM.

Turning to B12, the Kd turned out to be 0.0428 pM.

B13: the Kd stood at 0.437 pM.

As for B14, the Kd worked out at 42 pM.

As for B15, the equilibrium dissociation constant (Kd) was determined as 2.39 pM.

As to B16, the Kd was 0.213 pM.

Consider B17, for which the dissociation constant Kd amounted to 0.201 pM.

For the molecule B18, the Kd was 5.09 pM.

For B19, the Kd was found to be 3.79 pM.

For the molecule B20, the Kd came to 3.17 pM.

Consider B21, for which the Kd came to 0.8 pM.

Another experiment deals with T4, Recombinant soluble E protein (0.8E-His) from DENV-1 (DENV-1, UniProt P27909 281-675).
T4 construct: also called DENV-1 E protein; DV1
Assay: not given
On to B1, for which the Kd was found to be 1910 pM.

For the molecule B2, the Kd came to 2180 pM.

Turning to B3, the Kd turned out to be 2290 pM.

Regarding B4, the Kd turned out to be 1910 pM.

As for B5, the Kd was determined as 1960 pM.

With B6, the Kd was found to be 1660 pM.

Regarding B7, the Kd stood at 1800 pM.

Consider B8, for which the Kd amounted to 1920 pM.

As to B9, the Kd is 1830 pM.

For the molecule B10, the Kd was 2260 pM.

For B11, the Kd came out at 1530 pM.

In the case of B12, the Kd was 1920 pM.

B13: the Kd was 956 pM.

In the case of B14, the equilibrium dissociation constant (Kd) turned out to be 982 pM.

Take B15: the Kd turned out to be 2140 pM.

Take B16: the Kd is 1910 pM.

In the case of B17, the Kd amounted to 1640 pM.

In the case of B18, the Kd stood at 1720 pM.

For the molecule B19, the Kd was 2230 pM.

Consider B20, for which the Kd was 2210 pM.

Consider B21, for which the Kd came to 1680 pM.
